In the supplement of paper PMC9170038:

System: MS2 coat protein
Assay: apparent KD of MS2 coat protein; designed switch direction (-1 OFF switch, 1 ON switch): 1; higher = weaker reporter binding
Procedure, shortened: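 SNAP-549-labelled MS2 coat protein was titrated, doubling from 0.7 or 1.5 nM to 3 µM, over designed RNA switches transcribed on Illumina chips by stalled E. coli RNA polymerase. Runs were done without input, with 200 uM small-molecule ligand, or with an oligonucleotide input. Apparent KD is the per-design median over clusters of curve-fitted normalised fluorescence.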

[1] = input ligand: microRNA oligo, concentration not stated
[2] = Eterna round: R95, input ligand: FMN 200 uM
[3] = Eterna round: R95, input ligand: microRNA oligo, concentration not stated
[4] = Eterna round: R95, input ligand: none

Sequence | apparent KD of MS2 coat protein (input ligand: FMN 200 uM) [nM] | apparent KD of MS2 coat protein [1] [nM] | apparent KD of MS2 coat protein (input ligand: none) [nM] | apparent KD of MS2 coat protein [2] [nM] | apparent KD of MS2 coat protein [3] [nM] | apparent KD of MS2 coat protein [4] [nM]
GUAAAGAAUUAAGGAUAUUGAAUACAUAUGUUUAACAUGAGGAUCACCCAUGUGGGUUGCGGUAUCGAGAAGGUAAAAUAAAAG [Mat - Same State NG 2 - JL mod - D7] (Eterna round: R96, puzzle: Same State NG 2) | 137 | 105 | 124 |  |  | 
GUAAAGAAUUAAGGAUAUUGAUUACAUAUGUUUAACAUGAGGAUCACCCAUGUGGGUUGCGGUAUCGAGAAGGUAAAAUAAUAG [Mat - same State NG 2 - JL mod - D86] (Eterna round: R96, puzzle: Same State NG 2) | 190 | 131 | 174 |  |  | 
GUAAGUUUGAUGCUCGUCUCUCCGUACAAACAUGAGGAUCACCCAUGUGGUCGGGAAGUAGCCCGGCCAGUAUGGCC [Rerire] (puzzle: Sensor for hsa-mir-208a) |  |  |  | 24.8 | 21.4 | 26.8
GUAAUACAUGAGGAUCACCCAUGUCAAUGUAGUCGAGGAUAUGGGUAGCUAUGAGGCGUUCUAGAAGGCGACGAGC [Same State 1 - Mod of Vinnie Teenbexe v.3] (puzzle: Same State 1) |  |  |  | 273 | 151 | 52.2
GUAAUCGUUAUAGGAUAUCAUGAGGAUUACCCAUGAGAAGGGUGAUUCCGAUCCAUAUUCAGAAAAUGAAUGUGGAUAGAUUGC [Omei NG1 A v1] (Eterna round: R96, puzzle: Same State NG 1) | 123 | 117 | 260 |  |  | 
GUACAAAUCAUAGGAUAUGGGCGGGAAUGCCGUCCAGAAGGAUGAACAUGAGGAUCACCCAUGUCCGGCCACAAAUACGCGGCC [Bientela] (Eterna round: R96, puzzle: Same State NG 1) | 72.3 | 104 | 161 |  |  | 
GUACAGAUUAUAGGAUAUCACGUCGAAUAGACGUGAGAAGGAUAAUCACACAUGAAUAUUAAUACAUGAGGAUCACCCAUGUAC [SSNG1/17-A1] (Eterna round: R96, puzzle: Same State NG 1) | 16.7 | 12.9 | 17.1 |  |  | 
GUACAUAUCAGAGGAUAUCACGUCGAUUAGACGUGAGAAGGCUGAUCACACAUGAAUAUUAAUACAUGAGGAUCACCCAUGUAC [SSNG1/13-A2] (Eterna round: R96, puzzle: Same State NG 1) | 16.9 | 28.5 | 37.2 |  |  | 
GUACUACAUGAGGAUCACCCAUGUUACCUUCACGGAGGAUAUAGGAAAUGAGGUGAGAUGCUAGAAGGCCGAGGAA [Candy Rainbow 4] (puzzle: Same State 1) |  |  |  | 102 | 78.3 | 95.9
GUAGAAUAACUAGAGGAUAUCCGAGUGGUAACAUGAGGAUCACCCAUGUGAUGAAAGGAACAUGAGGAGAAGGCUAGAAGUAAUG [Mat - Same State 2 - Mod of JL - D81] (puzzle: Same State 2) |  |  |  | 17.5 | 61.1 | 48.1
GUAGAUAUAACGCAGGAUAUUCAAUGAGAGACAUGAGGAUCACCCAUGUGAGAGUGAGAUGAUAGGAAGAAGGGUGAGAGAGAUG [Altered State 2-8 - Jieux - Same State 2] (puzzle: Same State 2) |  |  |  | 107 | 124 | 122
GUAGCAUACCGAGGAUAUUCAACAUGAGGAUCACCCAUGUGUUUGUUAUAGGCCAAAAGGCCUUGGGAGAAGGCGGAAUGCUAC [Xeonanis - 20 Mod16] (Eterna round: R96, puzzle: Same State NG 2) | 9.03 | 9.65 | 12.9 |  |  | 
GUAGCAUACCGAGGAUAUUCAUAUUAACAUGAGGAUCACCCAUGUAUUUAGGCCAAAAGGCCUUGGGAGAAGGCGGAAUGCUAC [Xeonanis - 20 Mod7] (Eterna round: R96, puzzle: Same State NG 2) | 17.5 | 22.3 | 29.4 |  |  | 
GUAGCAUACCGAGGAUAUUCAUAUUACAUGAGGAUCACCCAUGUUAUAGGCCGAUUACGGCCUUGGGAGAAGGCGGAAUGCUAC [Xeonanis - 20 Mod24] (Eterna round: R96, puzzle: Same State NG 2) | 17.4 | 38.1 | 37.6 |  |  | 
GUAGCAUACCGAGGAUAUUCAUAUUAUAAACAUGAGGAUCACCCAUGUGGCCGAUUACGGCCUUGGGAGAAGGCGGAAUGCUAC [Xeonanis - 20 Mod17] (Eterna round: R96, puzzle: Same State NG 2) | 44.6 | 641 | 909 |  |  | 
GUAGCAUACCGAGGAUAUUCAUAUUAUAAACAUGAGGAUCACCCAUGUGGUCGAUUACGACCUUGGGAGAAGGCGGAAUGCUAC [Xeonanis - 20 Mod36] (Eterna round: R96, puzzle: Same State NG 2) | 46.4 | 462 | 725 |  |  | 

Sequence | apparent KD of MS2 coat protein (input ligand: FMN 200 uM) [nM] | apparent KD of MS2 coat protein [1] [nM] | apparent KD of MS2 coat protein (input ligand: none) [nM] | apparent KD of MS2 coat protein [2] [nM] | apparent KD of MS2 coat protein [3] [nM] | apparent KD of MS2 coat protein [4] [nM]
GUAGCAUACCGAGGAUAUUCAUAUUAUACAUGAGGAUCACCCAUGUAAGGUCGAUUACGACCUUGGGAGAAGGCGGAAUGCUAC [Xeonanis - 20 Mod34] (Eterna round: R96, puzzle: Same State NG 2) | 20.3 | 71.9 | 108 |  |  | 
GUCAGCGAUUGAGGAUAUCACGUCGAAUAGACGUGAGAAGGCGAUCAUAACAUGAGGAUCACCCAUGUAUUACAUGAAGCUGAC [SSNG1/5-A1] (Eterna round: R96, puzzle: Same State NG 1) | 15.2 | 22.4 | 29.1 |  |  | 
GUCCGUACCACAGGAUAUCCUAGUCAUGAUCUAGGAGAAGGGUGGCCACAUGAGGAUCACCCAUGUGAAGUGCCAGAGGCACGA [MOD Xexeraed] (Eterna round: R96, puzzle: Same State NG 1) | 35.2 | 46 | 53.3 |  |  | 
GUGAAGAAUUAAGGAUAUUGAAUACAUAUGUUUAACAUGAGGAUCACCCAUGUGGGUUGCGGUAUCGAGAAGGUAAAUUACUGG [salish99_SSNG2_r04_032] (Eterna round: R96, puzzle: Same State NG 2) |  | 81.7 |  |  |  | 
GUGCAAAUCAUAGGAUAUGGGCGGGAAUGCCGUCCAGAAGGAUGAACAUGAGGAUCACCCAUGUCCAGCCGCAAAUACGCGGCC [Sodirien] (Eterna round: R96, puzzle: Same State NG 1) | 93.8 | 95.1 | 192 |  |  | 
GUGCAACCGUGUGAGGAUAUCGGUGGUAAAACAUGAGGAUCACCCAUGUCCGAAGCUCGGACCUCCGAGAAGGCGCACAGUUGCA [Same State 2 - Mod of Erisin v.1] (puzzle: Same State 2) |  |  |  | 6.82 | 5.46 | 7.08
GUGCGGCUGCCACAGGAUAUACGUGGAUCGACAUGAGGAUCACCCAUGUAUAUCCUAAUAAUUGCGUAGAAGGGUGGUCAGCCGG [Anzaenenes] (puzzle: Same State 2) |  |  |  | 143 | 608 | 825
GUGCUCGUGUAAGGAUAUGCAGCCGUUUCGGCUGCAGAAGGUACUAUAAUACAUGAGGAUCACCCAUGUCUCUAUUGUUUGGUG [salish99_SSNG1_r04_906] (Eterna round: R96, puzzle: Same State NG 1) |  | 76.3 |  |  |  | 
GUGCUCGUGUGAGGAUAUGCUUCCGUUUCGGCUGCAGAAGGUACUAUUAUACAUGAGGAUCACCCAUGUCUCUUUUCUCCGGUG [salish99_SSNG1_r04_913] (Eterna round: R96, puzzle: Same State NG 1) | 38.3 | 27.4 | 37.2 |  |  | 
GUGGCCCAGGCACAGGAUAUGUUUCUCGUAACAUGAGGAUCACCCAUGUGCCUAUGAGAUUGUUUGCAGAAGGGUGCACGCCACG [JL Atiinbe mod 03] (Eterna round: R96, puzzle: Same State 2) | 18.3 | 146 | 290 |  |  | 
GUGGCCCAGGCACAGGAUAUGUUUCUCGUAACAUGAGGAUCACCCAUGUGCCUAUGAGAUUGUUUGCAGAAGGGUGCACGCCACG [JL Atiinbe mod 03] (puzzle: Same State 2) |  |  |  | 21 | 348 | 541
GUGGCCCAGGCACAGGAUAUGUUUCUCGUAACAUGAGGAUCACCCAUGUGCCUAUGAGAUUUAAUGCAGAAGGGUGCACGCCACU [Mat - Same State 2 - Mod of UCT - D79] (puzzle: Same State 2) |  |  |  | 24.1 | 95.8 | 184
GUGGUCAGACAUGAGGAUCACCCAUGUGGAAUAAAUAACAGACAGGAUAUAUAAUAUAGGAUAUAGUAGAAGGGUCGAUUGGUG (Eterna round: R96, puzzle: Same State NG 3) |  | 69.7 |  |  |  | 
GUGGUCAGACAUGAGGAUCACCCAUGUGGAAUAAAUAACAGACAGGAUAUCGAAUAUAGGAUAUAUGAGAAGGGUCGAUUGGUG (Eterna round: R96, puzzle: Same State NG 3) | 63.4 | 63 | 90.7 |  |  | 
GUGGUCAGACAUGAGGAUCACCCAUGUGGAAUAAAUAACAGACAGGAUAUCUAAUAUAGGAUAUAGGAGAAGGGUCGAUUGGUG (Eterna round: R96, puzzle: Same State NG 3) |  | 73.5 |  |  |  | 
